Data from article doi:10.1101/2021.02.17.431740 (bioRxiv, 2021).
Non-standard residues stand in square brackets, D forms with d. pY = N[C@@H](Cc1ccc(OP(=O)(O)O)cc1)C(=O)O

How the values were obtained:
[1] = molecular target: recombinant full-length human CrkII (human, UniProt P46108-1 1-304); test: ITC
[2] = molecular target: recombinant full-length human Grb2 (human, UniProt P62993-1 1-217); test: ITC
Sequence of recombinant full-length human Grb2 (P62993 whole entry): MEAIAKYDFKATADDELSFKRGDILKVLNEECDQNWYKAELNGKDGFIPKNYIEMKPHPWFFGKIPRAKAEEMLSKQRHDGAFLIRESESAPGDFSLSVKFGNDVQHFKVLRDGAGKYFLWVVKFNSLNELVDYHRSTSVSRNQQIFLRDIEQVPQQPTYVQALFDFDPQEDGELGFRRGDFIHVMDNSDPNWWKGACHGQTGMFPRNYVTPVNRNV

Sequence of recombinant full-length human CrkII (P46108 whole entry): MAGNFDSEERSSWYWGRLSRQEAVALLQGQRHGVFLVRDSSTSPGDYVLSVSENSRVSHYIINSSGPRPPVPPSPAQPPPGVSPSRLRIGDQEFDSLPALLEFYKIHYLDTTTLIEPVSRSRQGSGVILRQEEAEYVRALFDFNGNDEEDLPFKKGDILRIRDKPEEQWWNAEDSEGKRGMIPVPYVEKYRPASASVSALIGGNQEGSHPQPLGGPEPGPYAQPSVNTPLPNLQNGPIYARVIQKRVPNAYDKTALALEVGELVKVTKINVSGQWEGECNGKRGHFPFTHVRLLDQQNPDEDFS

## Ac-T[pY]SNLGQ-NH2 [PEAK3 phosphorylated peptide Ac-T(pY)SNLGQ-NH2]
[1]
  Kd: 7.8 µM
  stoichiometry N: 1
[2]
  stoichiometry N: 1
